B1: P-selectin (Homo sapiens), P16109 (parent)
chain: MANCQIAILYQRFQRVVFGISQLLCFSALISELTNQKEVAAWTYHYSTKAYSWNISRKYCQNRYTDLVAIQNKNEIDYLNKVLPYYSSYYWIGIRKNNKTWTWVGTKKALTNEAENWADNEPNNKRNNEDCVEIYIKSPSAPGKWNDEHCLKKKHALCYTASCQDMSCSKQGECLETIGNYTCSCYPGFYGPECEYVRECGELELPQHVLMNCSHPLGNFSFNSQCSFHCTDGYQVNGPSKLECLASGIWTNKPPQCLAAQCPPLKIPERGNMTCLHSAKAFQHQSSCSFSCEEGFALVGPEVVQCTASGVWTAPAPVCKAVQCQHLEAPSEGTMDCVHPLTAFAYGSSCKFECQPGYRVRGLDMLRCIDSGHWSAPLPTCEAISCEPLESPVHGSMDCSPSLRAFQYDTNCSFRCAEGFMLRGADIVRCDNLGQWTAPAPVCQALQCQDLPVPNEARVNCSHPFGAFRYQSVCSFTCNEGLLLVGASVLQCLATGNWNSVPPECQAIPCTPLLSPQNGTMTCVQPLGSSSYKSTCQFICDEGYSLSGPERLDCTRSGRWTDSPPMCEAIKCPELFAPEQGSLDCSDTRGEFNVGSTCHFSCDNGFKLEGPNNVECTTSGRWSATPPTCKGIASLPTPGVQCPALTTPGQGTMYCRHHPGTFGFNTTCYFGCNAGFTLIGDSTLSCRPSGQWTAVTPACRAVKCSELHVNKPIAMNCSNLWGNFSYGSICSFHCLEGQLLNGSAQTACQENGHWSTTVPTCQAGPLTIQEALTYFGGAVASTIGLIMGGTLLALLRKRFRQKDDGKCPLNPHSHLGTYGVFTNAAFDPSP
partner: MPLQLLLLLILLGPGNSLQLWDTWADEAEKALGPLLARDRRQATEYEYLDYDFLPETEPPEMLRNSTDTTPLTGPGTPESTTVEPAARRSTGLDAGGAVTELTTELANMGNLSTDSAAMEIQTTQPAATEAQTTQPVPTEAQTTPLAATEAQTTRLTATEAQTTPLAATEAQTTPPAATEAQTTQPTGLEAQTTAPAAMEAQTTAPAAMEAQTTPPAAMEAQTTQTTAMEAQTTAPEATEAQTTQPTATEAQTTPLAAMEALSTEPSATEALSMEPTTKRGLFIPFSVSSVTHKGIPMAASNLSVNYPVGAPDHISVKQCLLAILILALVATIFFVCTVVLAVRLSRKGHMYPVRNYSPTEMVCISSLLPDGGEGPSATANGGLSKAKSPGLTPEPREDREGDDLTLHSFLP

Variants of: B1
Details: with selpl_human SELPLG

| Variant | effect of a mutation on the interaction |
| --- | --- |
| A69H | increasing interaction |

— IntAct's records for PubMed 19118202
